Laboratory results as given in patent publication US20230220104A1 (BRIGHTPATH BIOTHERAPEUTICS, published 2023).
Where a chain is given by its changes, count along the chain named.

T1: human CD73 on cells (H322, MDA-MB-231, HT-144, T cells, CD73-transfected HEK293T) (human, UniProt P21589 27-549)
T1 sequence (looked up): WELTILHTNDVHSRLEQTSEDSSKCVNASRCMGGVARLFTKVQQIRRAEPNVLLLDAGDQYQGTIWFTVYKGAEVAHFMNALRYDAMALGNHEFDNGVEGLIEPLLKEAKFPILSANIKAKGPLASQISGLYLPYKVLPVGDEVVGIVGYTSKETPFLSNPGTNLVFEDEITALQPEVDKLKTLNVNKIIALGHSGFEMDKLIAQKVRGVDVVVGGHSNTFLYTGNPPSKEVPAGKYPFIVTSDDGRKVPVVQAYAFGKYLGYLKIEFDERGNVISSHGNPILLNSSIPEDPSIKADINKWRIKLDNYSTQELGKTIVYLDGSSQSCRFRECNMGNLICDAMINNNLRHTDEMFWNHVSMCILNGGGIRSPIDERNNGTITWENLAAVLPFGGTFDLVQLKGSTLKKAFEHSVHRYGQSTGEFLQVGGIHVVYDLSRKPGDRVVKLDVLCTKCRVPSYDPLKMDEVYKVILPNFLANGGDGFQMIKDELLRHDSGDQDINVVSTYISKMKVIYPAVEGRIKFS

B1: 002_1_c antibody (antibody, V domains shown)
VH: QVQMKQSGPELVKPGASVKIPCKASGYTFTDCNMDWVKQSHGESLEWIGDINPNNGGTIYNQKFKGKVTLTIDKSSSTAYMELRSLTSEDTAVYYCARTNWDYAMDYWGQGTSVTVSS
VL: DIQMTQSPSSMYASLGERVTITCKASQDINSNLSWFQQKPGKSPKTLIYRANRLIDGVPSRFSGSGSGQDYSLTISSLEYEDMGIYYCLQYDVFPRTFGGGTKLELK
B2: 002_2_c antibody (antibody, V domains shown)
VH: B1 VH
VL: B1 VL with N32D
B3: 002_3_c antibody (antibody, V domains shown)
VH: B1 VH
VL: B1 VL with N32Q
B4: 002_4_c antibody (antibody, V domains shown)
VH: B1 VH with C32S
VL: B1 VL
B5: 002_5_c antibody (antibody, V domains shown)
VH: B1 VH with C32S
VL: B1 VL with N32D
B6: 002_6_c antibody (antibody, V domains shown)
VH: B1 VH with C32S
VL: B1 VL with N32Q
B7: 004_m antibody (antibody, V domains shown)
VH: QVQLQQPGAELVRPGTSVKLSCKASGYTFTGYWMNWLKQRPDQGLEWIGRIDPYDSETHYSQKFKDKAILTVHKSSSTAYIQLNSLTSEDSAVYYCTRSSPITTAPFDYWGRGTTLTVSS
VL: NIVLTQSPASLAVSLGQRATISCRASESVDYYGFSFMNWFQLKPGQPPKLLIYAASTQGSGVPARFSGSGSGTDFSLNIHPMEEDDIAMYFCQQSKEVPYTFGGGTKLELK
B8: 006_m antibody (antibody, V domains shown)
VH: QVQLQQPGAELVKPGVSVKLSCKASGYTFTSYWMHWVKQRPGQGPEWIGEINPSNARTNYNENFKSKATLTVDKSSTTAYMHFSRLTSEDSAVYYCARRGTSGNYFDFWGQGTTVTVSS
VL: B1 VL with S31T, N32Y, I55V, Q69E, V93E, R96Y, K103R, L106I
B9: 008_m antibody (antibody, V domains shown)
VH: QVQLKQSGAELVKPGASVKLSCKASGYTFTSYWMHWVKQRPGQGPEWIGEINPSNGRTNYNEKFKNRATLTVDKSSSTAYMQLSRLTSEDSAVYYCARRGTSGNYFDYWGQGTTLTVSS
VL: B1 VL with S31T, N32Y, I55V, Q69E, V93E, R96Y, K103R, L106I
B10: 007_m antibody (antibody, V domains shown)
VH: QVQLQQPGAELVRPGASVKLSCKASGYTFTSYWMNWVKQRPEQGLEWIGKIDPYDSETHYNQKFKDKAILTVDKSSSTAFMQLSSLTSEDSAVYYCARIRYGTFDYWGQGTTLTVSS
VL: B1 VL with Q3V, S31N, N32Y, R53I, I55V, R61G, V93E, R96Y, K103R, L106I
B11: 003_m antibody (antibody, V domains shown)
VH: DVKLVESGGGLVQPGGSRKLSCAASGFTFSSFGMHWVRQAPEKGLEWVAYISSGSRTIYYADTVRGRFTISRDNSKNTLFLQLTSLRSEDTAIYYCASDFGSSSPNYFDYWGQGTTVTVSS
VL: not shown
B12: 002_6_h2 (antibody, V domains shown)
VH: QVQMKQSGAEVKKPGASVKVSCKASGYTFTDSNMDWVRQAPGQRLEWMGDINPNNGGTIYNQKFKGRVTITIDTSASTAYMELSSLRSEDTAVYYCARTNWDYAMDYWGQGTLVTVSS
VL: DIQMTQSPSSMSASVGDRVTITCKASQDINSQLSWYQQKPGKAPKTLIYRANRLIDGVPSRFSGSGSGTDFTLTISSLQYEDMATYYCLQYDVFPRTFGQGTKLEIK
B13: 004_h3 antibody (antibody, V domains shown)
VH: EVQLVQSGAEVKKPGESLKISCKASGYTFTGYWMNWLRQMPDKGLEWMGRIDPYDSETHYSQKFKDKVTITAHKSSSTAYLQWSSLKASDSAIYYCARSSPITTAPFDYWGQGTTVTVSS
VL: DIVMTQSPASLAVSLGERATISCRASESVDYYGFSFMNWYQQKPGQPPKLLIYAASTQGSGVPDRFSGSGSGTDFTLTISSLQAEDVAVYYCQQSKEVPYTFGGGTKVEIK
notes: Humanized antibody based on 004_m
B14: 008_h4 antibody (antibody, V domains shown)
VH: QVQLVQSGAEVKKPGASVKVSCKASGYTFTSYWMHWVRQRPGQGLEWMGEINPSNGRTNYNEKFKNRATITADKSSSTAYMELSSLRSEDTAVYYCARRGTSGNYFDYWGQGTLVTVSS
VL: B12 VL with M11L, S31T, Q32Y, Y36F, I55V, S67Y, V93E, R96Y, Q100G, L104V
notes: Humanized antibody based on 008_m
B15: 002_6_h1 (antibody, V domains shown)
VH: B12 VH with M4L, K5V, I72R
VL: B12 VL with M11L, T46L, Y80P, M83F, L89Q
notes: Humanized antibody of 002_6_c; also called humanized antibody 002_6_h1
B16: 002_6_h5 (antibody, V domains shown)
VH: B12 VH with M4L, K5Q, Q6E, R44G, I70M, I72R, A76T, A79V
VL: B12 VL with M4V, S10F, M11L, T46L, D70E, Y80P, M83F, L89Q, Q100G, L104V
notes: Humanized antibody of 002_6_c; also called humanized antibody 002_6_h5
B17: 002_6_h6 (antibody, V domains shown)
VH: B12 VH with Q6E, R44G, I70M, A76T, A79V
VL: B12 VL with M4V, S10F, M11L, Q100G, L104V
notes: Humanized antibody of 002_6_c; also called humanized antibody 002_6_h6
B18: 002_6_h3 (antibody, V domains shown)
VH: QVQLLQSAAEVRKPGASVKVSCKASGYTFTDSNMDWVRQAPGQGLEWMGDINPNNGGTIYNQKFKGRVTMTTDTSRRTAYMELRSLRSDDTAVYYCARTNWDYAMDYWGQGTTVTVSS
VL: B12 VL with S10F, M11L, T46L, D70E, Y80P, M83F, L89Q, Q100G
notes: Humanized antibody of 002_6_c; also called humanized antibody 002_6_h3

biological target: T1, human CD73 on cells (H322, MDA-MB-231, …); assay: cell-based or functional assay

Q: Which “IC50 of AMP degradation suppressive function, H322 cells” value (“IC50 … H322 cells” for short) does the source give for B1 here?
A: Its value is 0.042 µg/mL.

Q: For B2, which “IC50 … H322 cells” value is on record?
A: Its value is 0.077 µg/mL.

Q: With B3 as the binder, how does the “IC50 … H322 cells” value read?
A: The value was 0.039 µg/mL.

Q: How did the “IC50 … H322 cells” value turn out when B4 was run?
A: Its value is 0.038 µg/mL.

Q: With B5 as the binder, how does the “IC50 … H322 cells” value read?
A: Its value is 0.066 µg/mL.

Q: For B6, which “IC50 … H322 cells” value is on record?
A: The value was 0.042 µg/mL.

biological target: T1, human CD73 on cells (H322, MDA-MB-231, …); assay: cell-based or functional assay; remark: another data set of the same source

Q: How did the “IC50 of AMP degradation suppressive function, MDA-MB-231 cells” value (“IC50 … MDA-MB-231 cells” below) turn out when B6 was run?
A: The value was 0.04 µg/mL.

Q: B7 was tested. Which “IC50 … MDA-MB-231 cells” value did it give?
A: The value was 0.032 µg/mL.

Q: With B8 as the binder, how does the “IC50 … MDA-MB-231 cells” value read?
A: The value was 0.032 µg/mL.

Q: With B9 as the binder, how does the “IC50 … MDA-MB-231 cells” value read?
A: The value was 0.031 µg/mL.

Q: With B10 as the binder, how does the “IC50 … MDA-MB-231 cells” value read?
A: The value was 0.041 µg/mL.

biological target: T1, human CD73 on cells (H322, MDA-MB-231, …); assay: cell-based or functional assay; remark: another data set of the same source

Q: How did the “IC50 of AMP degradation suppressive function (cell line of Table 7 not stated; H322 in FIG. 12)” value turn out when B11 was run?
A: The value was 0.088 µg/mL.

Q: For B7, which “IC50 of AMP degradation suppressive function (cell line of Table 7 not stated; H322 in FIG. 12)” value is on record?
A: Its value is 0.013 µg/mL.

Q: With B8 as the binder, how does the “IC50 of AMP degradation suppressive function (cell line of Table 7 not stated; H322 in FIG. 12)” value read?
A: The value was 0.008 µg/mL.

Q: B9 was tested. Which “IC50 of AMP degradation suppressive function (cell line of Table 7 not stated; H322 in FIG. 12)” value did it give?
A: The value was 0.006 µg/mL.

Q: B10 was tested. Which “IC50 of AMP degradation suppressive function (cell line of Table 7 not stated; H322 in FIG. 12)” value did it give?
A: The value was 0.012 µg/mL.

biological target: T1, human CD73 on cells (H322, MDA-MB-231, …); assay: cell-based or functional assay; remark: another data set of the same source

Q: For B6, which “IC50 … H322 cells” value is on record?
A: Its value is 0.04 µg/mL.

Q: Which “IC50 … H322 cells” value does the source give for B12 here?
A: The value was 0.236 µg/mL.

biological target: T1, human CD73 on cells (H322, MDA-MB-231, …); assay: flow cytometry, HEK293T cells forcibly expressing human CD73 (293T_hCD73) against untransfected 293T cells, APC channel

Q: Does B13 bind?
A: Result: binds

Q: Does B14 bind?
A: Result: binds

biological target: T1, human CD73 on cells (H322, MDA-MB-231, …); assay: cell-based or functional assay; remark: another data set of the same source

Q: Which “IC50 … MDA-MB-231 cells” value does the source give for B6 here?
A: The value was 0.023 µg/mL.

biological target: T1, human CD73 on cells (H322, MDA-MB-231, …); assay: flow cytometry on H322 cells (endogenous CD73), PE channel
Method: Analysis of the binding activity of each of the obtained humanized antibodies 002_6_h1 to 002_6_h8 to target expressing cells was carried out by FACS analysis using endogeneously CD73 expressing cells (human lung cancer cell line H322).

Q: Does B15 bind?
A: Result: binds

Q: Does B16 bind?
A: Result: binds

Q: Does B17 bind?
A: Result: binds

Q: Does B18 bind?
A: Result: binds
